According to publication PMC5714250:

T1: APUM23 85-655 (WT) (Arabidopsis thaliana, UniProt Q9C552 85-655)
T1 sequence: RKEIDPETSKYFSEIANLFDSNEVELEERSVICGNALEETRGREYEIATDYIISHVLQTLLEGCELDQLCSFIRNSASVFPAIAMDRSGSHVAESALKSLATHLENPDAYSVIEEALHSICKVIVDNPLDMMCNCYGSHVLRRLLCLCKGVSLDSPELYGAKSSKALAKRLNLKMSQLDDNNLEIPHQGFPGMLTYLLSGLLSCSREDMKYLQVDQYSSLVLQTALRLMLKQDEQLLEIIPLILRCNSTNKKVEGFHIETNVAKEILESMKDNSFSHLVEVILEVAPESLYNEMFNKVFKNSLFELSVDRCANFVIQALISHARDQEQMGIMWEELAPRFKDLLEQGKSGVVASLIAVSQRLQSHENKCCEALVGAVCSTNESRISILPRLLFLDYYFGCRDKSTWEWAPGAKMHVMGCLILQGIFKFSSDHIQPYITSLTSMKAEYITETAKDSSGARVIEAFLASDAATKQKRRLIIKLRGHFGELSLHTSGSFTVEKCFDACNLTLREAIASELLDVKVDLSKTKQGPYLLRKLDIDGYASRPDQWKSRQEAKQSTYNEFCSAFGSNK

T2: APUM23Delete (Arabidopsis thaliana, UniProt Q9C552 85-655, del235-270)
T2 sequence: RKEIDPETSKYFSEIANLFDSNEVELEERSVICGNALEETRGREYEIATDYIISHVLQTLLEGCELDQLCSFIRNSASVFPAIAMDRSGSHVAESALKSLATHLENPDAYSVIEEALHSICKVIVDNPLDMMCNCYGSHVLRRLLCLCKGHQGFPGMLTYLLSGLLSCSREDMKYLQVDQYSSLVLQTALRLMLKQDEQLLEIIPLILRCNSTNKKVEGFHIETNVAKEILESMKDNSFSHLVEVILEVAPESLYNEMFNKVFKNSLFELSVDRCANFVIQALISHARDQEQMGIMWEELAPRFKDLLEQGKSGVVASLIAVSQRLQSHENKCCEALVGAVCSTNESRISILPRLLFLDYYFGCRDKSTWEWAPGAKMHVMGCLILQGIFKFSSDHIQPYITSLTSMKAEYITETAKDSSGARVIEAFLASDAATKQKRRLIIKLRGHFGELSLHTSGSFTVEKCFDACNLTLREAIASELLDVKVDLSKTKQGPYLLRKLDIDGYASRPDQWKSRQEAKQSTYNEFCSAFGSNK


What was measured:
[1] = target: T1, APUM23 85-655 (WT); test: X-ray crystallography
[2] = target: T2, APUM23Delete; test: X-ray crystallography

Row | Binder | binding result [1] | binding result [2]
1 | GGAGUUGACGG (ssRNA) [11-mer A+3G RNA] | binds | 
2 | GGAAUUGACGG (ssRNA) [11-mer WT RNA (18S rRNA 1141-1151)] |  | binds
